The assay deals with H1 HA (recombinant HA of Figure 4E) (Influenza A virus, H1 subtype; strain …, UniProt A0A1J0CXU0). Kind of assay: BLI. For orientation: Biolayer interferometry detects binding as a change in optical thickness at a sensor tip.

B1: 789-203-3C12 AA variant mAb (Cys33Ala/Cys52Ala heavy chain with the 789-203-3C12 light chain), IgG (antibody, V domains shown)
VH: QVQLQESGPGLVKPSEILSLTCAVSGGSFSSYAWGWIRQPPGKGLEWIGSIAGSGGSNYLNPSLKSRVTLSVDTSKNQFSLILNSVTAADTAVYYCAREGITIFGVVIPRVLDSWGQGAVVTVSS
VL: DIQMTQSPSSLSASVGDTVTITCRASQSISSWLAWYQQKPGKAPNLLIYRASTLQSGVPSRFSGSGSGTDFTLTISSLQSEDFATYFCQQSTSSPFTFGPGTKLDIK
B1: the binding result was “binds”.
